Measured values from publication PMC12990809.

Key:
Assay in all cases: pulldown
Conditions in all cases: 20 nM protein, 1.5 uM RNA pool; 20 mM HEPES pH 7.8, 70 mM KCl, 10 mM NaCl, 10% glycerol, 2 mM DTT, 0.1 ug/uL BSA; 30 min, 4 C
[1] = target: T1, PFE0865c (Plasmodium falciparum) (UniProt Q8I3T5)
T1 sequence: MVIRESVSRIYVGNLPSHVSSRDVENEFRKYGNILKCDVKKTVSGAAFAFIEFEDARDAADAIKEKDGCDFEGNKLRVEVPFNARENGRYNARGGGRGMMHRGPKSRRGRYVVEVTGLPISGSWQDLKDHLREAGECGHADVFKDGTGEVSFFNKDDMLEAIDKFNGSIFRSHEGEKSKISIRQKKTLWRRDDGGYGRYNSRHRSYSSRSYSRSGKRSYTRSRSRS

[2] = target: T2, rsp-1 (Caenorhabditis elegans) (UniProt Q23121)
T2 sequence: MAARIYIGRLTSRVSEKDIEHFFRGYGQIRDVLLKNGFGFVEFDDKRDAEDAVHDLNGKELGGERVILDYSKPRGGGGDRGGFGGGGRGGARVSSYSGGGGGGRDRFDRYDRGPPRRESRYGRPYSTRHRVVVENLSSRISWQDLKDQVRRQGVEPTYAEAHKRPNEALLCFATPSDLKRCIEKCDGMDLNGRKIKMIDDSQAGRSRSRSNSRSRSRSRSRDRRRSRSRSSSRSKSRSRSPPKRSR

ESRP1 (Homo sapiens) = target: T3, ESRP1 (Homo sapiens) (UniProt Q6NXG1)
T3 sequence: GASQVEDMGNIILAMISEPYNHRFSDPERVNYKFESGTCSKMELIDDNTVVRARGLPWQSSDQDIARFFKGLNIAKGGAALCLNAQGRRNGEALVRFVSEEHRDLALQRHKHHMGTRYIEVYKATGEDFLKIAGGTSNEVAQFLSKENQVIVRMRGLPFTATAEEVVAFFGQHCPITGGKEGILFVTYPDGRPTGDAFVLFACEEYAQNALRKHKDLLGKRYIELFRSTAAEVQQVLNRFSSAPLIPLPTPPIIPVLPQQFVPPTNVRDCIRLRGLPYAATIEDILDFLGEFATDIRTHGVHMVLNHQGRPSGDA

[3] = target: T4, RBFOX2 I153V (Homo sapiens) (UniProt O43251)
T4 sequence: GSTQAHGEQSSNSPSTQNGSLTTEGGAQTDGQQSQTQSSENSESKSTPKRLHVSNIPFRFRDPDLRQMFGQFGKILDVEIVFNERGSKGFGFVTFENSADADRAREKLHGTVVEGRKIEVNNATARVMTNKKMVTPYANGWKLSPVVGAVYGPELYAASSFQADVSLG

ELAVL2 (Homo sapiens) = ELAVL2 (Homo sapiens) (UniProt Q12926)
Sequence of ELAVL2 (Homo sapiens) (Q12926 1-189): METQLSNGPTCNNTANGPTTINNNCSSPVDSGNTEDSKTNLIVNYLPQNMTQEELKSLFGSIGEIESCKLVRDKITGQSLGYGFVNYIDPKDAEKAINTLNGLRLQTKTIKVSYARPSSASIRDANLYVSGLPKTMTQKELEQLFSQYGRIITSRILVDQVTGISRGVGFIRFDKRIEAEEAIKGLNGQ

[4] = target: T5, PK21151.1 (Cannabis sativa) (UniProt A0A7J6F7E6)
T5 sequence: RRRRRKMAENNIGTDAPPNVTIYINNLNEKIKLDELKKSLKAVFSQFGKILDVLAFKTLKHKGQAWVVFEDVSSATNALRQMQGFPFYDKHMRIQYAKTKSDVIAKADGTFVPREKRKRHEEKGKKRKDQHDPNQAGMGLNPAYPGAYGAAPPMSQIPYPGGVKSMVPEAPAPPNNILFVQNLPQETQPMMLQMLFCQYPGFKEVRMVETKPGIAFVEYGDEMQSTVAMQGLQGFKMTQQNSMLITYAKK

[5] = target: T6, U2B'' (Arabidopsis thaliana) (UniProt O22922)
T6 sequence: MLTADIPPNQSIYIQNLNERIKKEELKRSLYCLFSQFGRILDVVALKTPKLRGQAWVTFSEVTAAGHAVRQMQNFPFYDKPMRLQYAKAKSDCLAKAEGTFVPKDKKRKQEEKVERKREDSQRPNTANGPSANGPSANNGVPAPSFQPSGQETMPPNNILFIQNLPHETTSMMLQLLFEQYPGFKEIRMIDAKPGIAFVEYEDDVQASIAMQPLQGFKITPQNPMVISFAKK

[6] = target: T7, cpb-2 (Caenorhabditis elegans) (UniProt Q18317)
T7 sequence: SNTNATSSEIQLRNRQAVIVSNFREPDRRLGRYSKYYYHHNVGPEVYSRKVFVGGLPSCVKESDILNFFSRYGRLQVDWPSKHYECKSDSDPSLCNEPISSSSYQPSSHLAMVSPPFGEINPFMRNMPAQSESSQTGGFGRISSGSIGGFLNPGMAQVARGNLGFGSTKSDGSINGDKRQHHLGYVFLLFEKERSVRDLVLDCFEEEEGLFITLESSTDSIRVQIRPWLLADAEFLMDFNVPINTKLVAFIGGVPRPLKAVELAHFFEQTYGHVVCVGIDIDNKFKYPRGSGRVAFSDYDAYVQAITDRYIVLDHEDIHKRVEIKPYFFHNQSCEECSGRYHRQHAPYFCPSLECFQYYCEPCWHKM

PUF60 (Homo sapiens) = target: T8, PUF60 (Homo sapiens) (UniProt Q9UHX1)
T8 sequence: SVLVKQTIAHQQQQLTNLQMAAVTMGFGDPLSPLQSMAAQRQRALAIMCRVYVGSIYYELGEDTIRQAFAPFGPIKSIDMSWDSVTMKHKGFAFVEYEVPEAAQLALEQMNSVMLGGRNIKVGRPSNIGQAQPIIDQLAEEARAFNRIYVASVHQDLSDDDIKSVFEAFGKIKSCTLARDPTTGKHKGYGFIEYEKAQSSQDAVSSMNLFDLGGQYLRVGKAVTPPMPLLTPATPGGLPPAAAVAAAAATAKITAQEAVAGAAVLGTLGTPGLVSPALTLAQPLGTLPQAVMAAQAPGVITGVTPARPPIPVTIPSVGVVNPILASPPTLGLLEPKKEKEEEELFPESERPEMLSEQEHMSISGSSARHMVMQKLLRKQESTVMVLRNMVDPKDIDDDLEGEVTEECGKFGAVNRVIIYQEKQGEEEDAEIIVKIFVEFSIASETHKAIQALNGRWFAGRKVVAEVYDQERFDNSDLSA

GAUGAAC [RNAcompete motif RNCMPT00800] gave a binding signal (z-score (mean of top ten 7-mers)) [1] of 6.53.
GGAGGAG [RNAcompete motif RNCMPT00801] gave a binding signal (z-score (mean of top ten 7-mers)) [2] of 9.02.
Work on GGAUGGGG [RNAcompete motif RNCMPT00808] yielded a binding signal (z-score (mean of top ten 7-mers)) (ESRP1 (Homo sapiens)) of 6.61.
UGCAUG [RNAcompete motif RNCMPT00818] was tested, and the binding signal (z-score (mean of top ten 7-mers)) [3] was 26.3.
With UUAUUUU [RNAcompete motif RNCMPT00814] the binding signal (z-score (mean of top ten 7-mers)) (ELAVL2 (Homo sapiens)) was 15.1.
With UUGCACA [RNAcompete motif RNCMPT00830] the binding signal (z-score (mean of top ten 7-mers)) [4] was 12.4.
UUGCACA [RNAcompete motif RNCMPT01660] showed a binding signal (z-score (mean of top ten 7-mers)) [5] of 14.2.
For UUUNUA [RNAcompete motif RNCMPT00794], the binding signal (z-score (mean of top ten 7-mers)) [6] was 14.9.
Work on UUUUUUU [RNAcompete motif RNCMPT00820] yielded a binding signal (z-score (mean of top ten 7-mers)) (PUF60 (Homo sapiens)) of 12.
